Reference: publication PMC5758809

Experiments:
[1] = biological target: native PP1 (rabbit) (UniProt P62139)
[2] = biological target: recombinant PP1 (UniProt P62139)

Chain of UniProt P62139 (P62139 whole entry): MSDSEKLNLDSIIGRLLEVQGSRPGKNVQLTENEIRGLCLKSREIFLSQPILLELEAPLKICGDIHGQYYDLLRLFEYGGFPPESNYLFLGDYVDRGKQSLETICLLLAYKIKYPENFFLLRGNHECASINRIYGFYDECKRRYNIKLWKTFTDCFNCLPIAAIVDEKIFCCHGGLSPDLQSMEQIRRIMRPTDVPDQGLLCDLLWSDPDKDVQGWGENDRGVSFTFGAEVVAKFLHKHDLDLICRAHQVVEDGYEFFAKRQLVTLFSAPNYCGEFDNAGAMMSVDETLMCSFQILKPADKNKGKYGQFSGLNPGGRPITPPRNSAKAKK

IC50 for inhibition of native PP1 phosphatase activity ([32P]phosphorylase a as substrate) [1] [nM]	IC50 for inhibition of recombinant PP1 phosphatase activity ([32P]phosphorylase a as substrate) [2] [nM]	Binder
19	980	PKA-thiophosphorylated form of inhibitor-1 (natural protein, thiophosphorylated Thr35) MEQDNSPRKIQFTVPLLEPHLDPEAAEQIRRRRPTPATLVLTSDQSSPEIDEDRIPNPHLKSTLAMSPRQRKKMTRITPTMKELQMMVEHHLGQQQQGEEPEGAAESTGTQESRPPGIPDTEVESRLGTSGTAKKTAECIPKTHERGSKEPSTKEPSTHIPPLDSKGANSV
240	553	PKA-thiophosphorylated form of inhibitor-1[I10A;F12A] (natural protein, thiophosphorylated Thr35) MEQDNSPRKAQATVPLLEPHLDPEAAEQIRRRRPTPATLVLTSDQSSPEIDEDRIPNPHLKSTLAMSPRQRKKMTRITPTMKELQMMVEHHLGQQQQGEEPEGAAESTGTQESRPPGIPDTEVESRLGTSGTAKKTAECIPKTHERGSKEPSTKEPSTHIPPLDSKGANSV
